Values joined by “and” are separate entries in the source; they are usually repeats but may differ in a detail not shown here. Equal values may be shown once.
What was measured:
MDA-MB-231 cells [1] = experiment: Migration assay toward EGF (modified Boyden chamber); assay type: cell-based, human; settings: 5 hrs
Description: Cells were harvested and resuspended at a density of 2×10^6 cells per ml in complete medium. A total volume of 0.1 ml cell suspension (2×10^5 cells) was placed in the upper chamber of a ThinCert filter with 8 μm pores in a 24-well plate (Greiner Bio-One North America, Monroe, Calif.). […] Medium from the lower chamber was collected, used to rinse the bottom of the filter twice, and then centrifuged at 1000 rpm for 10 min. The cell pellet was resuspended in 0.1 ml media and transferred to a white 96-well plate. Viable cell number was quantified using the Cell Titer Glo Assay kit according to the manufacturer's protocol.

MDA-MB-231 cells [2] = experiment: Transcriptional profiling, Human Tumor Metastasis RT2 Profiler PCR Array; assay type: cell-based; settings: 100 ng/mL, 5 hrs
Description: RNA was harvested from 10×10^6 MDA-MB-231 cells that were mock treated or treated with 100 ng/mL cmvIL-10 or hIL-10 for 5 hrs using the RNeasy Midi Kit and RNAse-Free DNase set (Qiagen, Valencia, Calif.). From the isolated RNA, cDNA was prepared using the RT^2 First Strand Kit (SA Biosciences, Frederick, Md.) and subsequently loaded into a 96-well breast cancer metastasis profiler PCR array (PAHS-028ZD) with system RT^2 SYBR Green Mastermix (SA Biosciences). The plates were run using the CFX96 Real-Time system cycler (BioRad, Hercules, Calif.) with the following amplification program: 95° C. for 10 min, 95° C. for […] with a slow ramp rate for 1.0 c/sec and 60° C. for 1 min. The data from three biological replicates for each treatment was analyzed by the ΔΔCT method according to manufacturer's instructions using the RT^2 profiler PCR array data analysis program located on the SABiosciences web portal and is reported as fold change relative to control.

Stat3 = experiment: Western blot for Stat3 phosphorylation in MDA-MB-231 cells; assay type: cell-based, human; settings: 100 ng/ml, 15 min
Description: For western blotting, cells were treated with 100 ng/ml cmvIL-10, hIL-10, IFNγ or PBS for 15 min, then harvested into cell lysis buffer (150 mM NaCl, 20 mM HEPES, 0.5% Triton-X-100, 1 mM NaOV4, 1 mM EDTA, 0.1% NaN3). Lysates were clarified, proteins were separated via SDS-PAGE, and then transferred to a nitrocellulose membrane. Then membrane was incubated in blocking solution (5% milk+1×TBS-T) for 1 hr, then probed with primary antibody at a 1:1000 dilution (total Stat3 or pStat3, total Stat1 or pStat1) in blocking solution overnight at 4° C. After washing, the membranes were incubated with a 1:2000 dilution of appropriate AP-conjugated secondary antibody and bands were detected using Western Blue stabilized AP substrate (Promega, Madison, Wis.). For analysis of secreted proteins, supernatants were collected at various time points, analyzed by SDS-PAGE and then immunoblotted as above for cmvIL-10, hIL-10, or serpin E1/PAI.

B1: cmvIL-10 (protein)
chain: ATTTTIKNTKPQCRPEDYATRLQDLRVTFHRVKPTLQREDDYSVWLDGTVVKGCWGCSVMDWLLRRYLEIVFPAGDHVYPGLKTELHSMRSTLESIYKDMRQCPLLGCGDKSVISRLSQEAERKSDNGTRKGLSELDTLFSRLEEYLHSRK
MDA-MB-231 cells [1]; 100 ng/ml cytokine plus EGF
  migration response toward EGF with cytokine in lower chamber: significantly increased
MDA-MB-231 cells [1]; no EGF
  cell movement toward cytokine alone: did not stimulate cell movement
MDA-MB-231 cells [2]; ACTB mRNA
  Fold Change vs. Mock, ACTB: 1.0986 fold
MDA-MB-231 cells [2]; APC mRNA
  Fold Change vs. Mock, APC: 0.9681 fold
MDA-MB-231 cells [2]; B2M mRNA
  Fold Change vs. Mock, B2M: 0.9597 fold
MDA-MB-231 cells [2]; BRMS1 mRNA
  Fold Change vs. Mock, BRMS1: 0.8029 fold
MDA-MB-231 cells [2]; CCL7 mRNA
  Fold Change vs. Mock, CCL7: 0.8113 fold
MDA-MB-231 cells [2]; CD44 mRNA
  Fold Change vs. Mock, CD44: 1.1473 fold
MDA-MB-231 cells [2]; CD82 mRNA
  Fold Change vs. Mock, CD82: 0.6917 fold
MDA-MB-231 cells [2]; CDH1 mRNA
  Fold Change vs. Mock, CDH1: 0.6288 fold
MDA-MB-231 cells [2]; CDH6 mRNA
  CDH6 fold change expressed as negative fold (down-regulation): −1.23 fold
  Fold Change vs. Mock, CDH6: 0.811 fold and 0.8113 fold
MDA-MB-231 cells [2]; CDH11 mRNA
  Fold Change vs. Mock, CDH11: 0.9033 fold
MDA-MB-231 cells [2]; CDKN2A mRNA
  Fold Change vs. Mock, CDKN2A: 0.8113 fold
MDA-MB-231 cells [2]; CHD4 mRNA
  Fold Change vs. Mock, CHD4: 0.8970 fold
MDA-MB-231 cells [2]; COL4A2 mRNA
  Fold Change vs. Mock, COL4A2: 1.0929 fold
MDA-MB-231 cells [2]; CST7 mRNA
  Fold Change vs. Mock, CST7: 0.7149 fold
MDA-MB-231 cells [2]; CTBP1 mRNA
  Fold Change vs. Mock, CTBP1: 0.6245 fold
MDA-MB-231 cells [2]; CTNNA1 mRNA
  Fold Change vs. Mock, CTNNA1: 0.8816 fold
MDA-MB-231 cells [2]; CTSK mRNA
  Fold Change vs. Mock, CTSK: 0.8043 fold
MDA-MB-231 cells [2]; CTSL1 mRNA
  Fold Change vs. Mock, CTSL1: 0.8212 fold
MDA-MB-231 cells [2]; CXCL12 mRNA
  Fold Change vs. Mock, CXCL12: 0.8113 fold
MDA-MB-231 cells [2]; CXCR4 mRNA
  Fold Change vs. Mock, CXCR4: 0.8084 fold
MDA-MB-231 cells [2]; DENR mRNA
  Fold Change vs. Mock, DENR: 0.9816 fold
MDA-MB-231 cells [2]; EPHB2 mRNA
  Fold Change vs. Mock, EPHB2: 0.6693 fold
MDA-MB-231 cells [2]; ETV4 mRNA
  Fold Change vs. Mock, ETV4: 0.5418 fold
MDA-MB-231 cells [2]; EWSR1 mRNA
  Fold Change vs. Mock, EWSR1: 0.9465 fold
MDA-MB-231 cells [2]; FAT1 mRNA
  Fold Change vs. Mock, FAT1: 1.2752 fold
MDA-MB-231 cells [2]; FGFR4 mRNA
  Fold Change vs. Mock, FGFR4: 0.5362 fold
MDA-MB-231 cells [2]; FLT4 mRNA
  Fold Change vs. Mock, FLT4: 0.8113 fold
MDA-MB-231 cells [2]; FN1 mRNA
  Fold Change vs. Mock, FN1: 1.1044 fold
MDA-MB-231 cells [2]; FXYD5 mRNA
  Fold Change vs. Mock, FXYD5: 0.9400 fold
MDA-MB-231 cells [2]; GAPDH mRNA
  Fold Change vs. Mock, GAPDH: 0.9335 fold
MDA-MB-231 cells [2]; GNRH1 mRNA
  Fold Change vs. Mock, GNRH1: 0.9970 fold
MDA-MB-231 cells [2]; HGF mRNA
  Fold Change vs. Mock, HGF: 0.8113 fold
MDA-MB-231 cells [2]; HPRT1 mRNA
  Fold Change vs. Mock, HPRT1: 1.2796 fold
MDA-MB-231 cells [2]; HPSE mRNA
  Fold Change vs. Mock, HPSE: 0.8620 fold
MDA-MB-231 cells [2]; HRAS mRNA
  Fold Change vs. Mock, HRAS: 1.0075 fold
MDA-MB-231 cells [2]; HTATIP2 mRNA
  Fold Change vs. Mock, HTATIP2: 0.7439 fold
MDA-MB-231 cells [2]; IGF1 mRNA
  Fold Change vs. Mock, IGF1: 0.8635 fold
MDA-MB-231 cells [2]; IL1B mRNA
  Fold Change vs. Mock, IL1B: 0.6266 fold
MDA-MB-231 cells [2]; IL18 mRNA
  Fold Change vs. Mock, IL18: 0.7362 fold
MDA-MB-231 cells [2]; ITGA7 mRNA
  Fold Change vs. Mock, ITGA7: 0.561 fold and 0.5609 fold
  ITGA7 fold change expressed as negative fold (down-regulation): −1.78 fold
MDA-MB-231 cells [2]; ITGB3 mRNA
  Fold Change vs. Mock, ITGB3: 1.0198 fold
MDA-MB-231 cells [2]; KISS1R mRNA
  Fold Change vs. Mock, KISS1R: 0.8113 fold
MDA-MB-231 cells [2]; KISS1 mRNA
  Fold Change vs. Mock, KISS1: 1.1394 fold
MDA-MB-231 cells [2]; KRAS mRNA
  Fold Change vs. Mock, KRAS: 1.0304 fold
MDA-MB-231 cells [2]; MCAM mRNA
  Fold Change vs. Mock, MCAM: 0.768 fold and 0.7688 fold
  MCAM fold change expressed as negative fold (down-regulation): −1.32 fold
MDA-MB-231 cells [2]; MDM2 mRNA
  Fold Change vs. Mock, MDM2: 0.9531 fold
MDA-MB-231 cells [2]; MET mRNA
  Fold Change vs. Mock, MET: 0.9833 fold
MDA-MB-231 cells [2]; METAP2 mRNA
  Fold Change vs. Mock, METAP2: 1.1295 fold
MDA-MB-231 cells [2]; MGAT5 mRNA
  Fold Change vs. Mock, MGAT5: 1.1795 fold
MDA-MB-231 cells [2]; MMP2 mRNA
  Fold Change vs. Mock, MMP2: −1.1101 fold
MDA-MB-231 cells [2]; MMP3 mRNA
  Fold Change vs. Mock, MMP3: 2.75 fold and 2.7478 fold
MDA-MB-231 cells [2]; MMP7 mRNA
  Fold Change vs. Mock, MMP7: 0.9416 fold
MDA-MB-231 cells [2]; MMP9 mRNA
  Fold Change vs. Mock, MMP9: 1.0233 fold
MDA-MB-231 cells [2]; MMP10 mRNA
  Fold Change vs. Mock, MMP10: 0.5980 fold
MDA-MB-231 cells [2]; MMP11 mRNA
  Fold Change vs. Mock, MMP11: 0.7026 fold
MDA-MB-231 cells [2]; MMP13 mRNA
  Fold Change vs. Mock, MMP13: 0.8127 fold
MDA-MB-231 cells [2]; MTA1 mRNA
  Fold Change vs. Mock, MTA1: 0.7388 fold
MDA-MB-231 cells [2]; MTSS1 mRNA
  MTSS1 fold change expressed as negative fold (down-regulation): −3.28 fold
MDA-MB-231 cells [2]; MYC mRNA
  Fold Change vs. Mock, MYC: 0.8113 fold
MDA-MB-231 cells [2]; MYCL1 mRNA
  Fold Change vs. Mock, MYCL1: 0.5260 fold
MDA-MB-231 cells [2]; NF2 mRNA
  Fold Change vs. Mock, NF2: 1.0742 fold
MDA-MB-231 cells [2]; NME1 mRNA
  Fold Change vs. Mock, NME1: 1.0358 fold
MDA-MB-231 cells [2]; NME4 mRNA
  Fold Change vs. Mock, NME4: 0.8226 fold
MDA-MB-231 cells [2]; NR4A3 mRNA
  Fold Change vs. Mock, NR4A3: 0.5389 fold
MDA-MB-231 cells [2]; PLAUR (uPAR) mRNA
  Fold Change vs. Mock, PLAUR: 1.59 fold and 1.5891 fold
MDA-MB-231 cells [2]; PNN mRNA
  Fold Change vs. Mock, PNN: 1.3088 fold
MDA-MB-231 cells [2]; PTEN mRNA
  Fold Change vs. Mock, PTEN: 0.7809 fold
MDA-MB-231 cells [2]; RB1 mRNA
  Fold Change vs. Mock, RB1: 0.9548 fold
MDA-MB-231 cells [2]; RORB mRNA
  Fold Change vs. Mock, RORB: 0.6953 fold
MDA-MB-231 cells [2]; RPLP0 mRNA
  Fold Change vs. Mock, RPLP0: 1.0376 fold
MDA-MB-231 cells [2]; RPSA mRNA
  Fold Change vs. Mock, RPSA: 0.9631 fold
MDA-MB-231 cells [2]; SERPINE1 (PAI-1) mRNA
  Fold Change vs. Mock, SERPINE1: 2.68 fold and 2.6818 fold
MDA-MB-231 cells [2]; SET mRNA
  Fold Change vs. Mock, SET: 0.9664 fold
MDA-MB-231 cells [2]; SMAD2 mRNA
  Fold Change vs. Mock, SMAD2: 0.6869 fold
MDA-MB-231 cells [2]; SMAD4 mRNA
  Fold Change vs. Mock, SMAD4: 0.8384 fold
MDA-MB-231 cells [2]; SRC mRNA
  Fold Change vs. Mock, SRC: 0.5297 fold
MDA-MB-231 cells [2]; SSTR2 mRNA
  Fold Change vs. Mock, SSTR2: 0.5556 fold
MDA-MB-231 cells [2]; SYK mRNA
  Fold Change vs. Mock, SYK: 0.8590 fold
MDA-MB-231 cells [2]; TCF20 mRNA
  Fold Change vs. Mock, TCF20: 0.7823 fold
MDA-MB-231 cells [2]; TGEB1 (Transforming growth factor, beta 1) mRNA
  Fold Change vs. Mock, TGEB1: 0.7173 fold
MDA-MB-231 cells [2]; TIMP2 mRNA
  Fold Change vs. Mock, TIMP2: 0.7596 fold
MDA-MB-231 cells [2]; TIMP3 mRNA
  Fold Change vs. Mock, TIMP3: 0.8155 fold
MDA-MB-231 cells [2]; TIMP4 mRNA
  Fold Change vs. Mock, TIMP4: 0.7324 fold
MDA-MB-231 cells [2]; TNFSF10 mRNA
  Fold Change vs. Mock, TNFSF10: 0.8169 fold
MDA-MB-231 cells [2]; TP53 mRNA
  Fold Change vs. Mock, TP53: 0.6180 fold
MDA-MB-231 cells [2]; TRPM1 mRNA
  Fold Change vs. Mock, TRPM1: 0.8113 fold
MDA-MB-231 cells [2]; TSHR mRNA
  Fold Change vs. Mock, TSHR: 0.8113 fold
MDA-MB-231 cells [2]; VEGFA mRNA
  Fold Change vs. Mock, VEGFA: 0.554 fold and 0.5541 fold
  VEGFA fold change expressed as negative fold (down-regulation): −1.80 fold
Stat3
  83 kD band of phosphorylated Stat3 (pStat3): detected

— patent US20180128830A1, “DETECTION OF HUMAN CYTOMEGALOVIRUS IN BREAST CANCER” (priority 2015, published 2018)
